Results: the supplement of paper PMC9170038

Legend:
[1] = system: MS2 coat protein; assay: apparent KD of MS2 coat protein, switch ON state; designed switch direction (-1 OFF switch, 1 ON switch): 1; higher = weaker reporter binding; conditions: FMN input: 0 or 200 uM; Eterna round: R93 (includes R88 designs)
Outline: (§1)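 With or without constant ligand, designed RNA switches in 100 mM Tris-HCl pH 7.5, 80 mM KCl and 4 mM MgCl2 were titrated with SNAP-549-labelled MS2 coat protein. Concentrations went up in twofold steps from 0.7 or 1.5 nM to 3 µM. The switches had been transcribed on-chip from Illumina sequencing clusters, and apparent KD is the per-design median of normalised cluster binding-curve fits.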

[2] = system: MS2 coat protein; assay: apparent KD of MS2 coat protein, switch OFF state (with FMN for OFF switches, without FMN for ON switches); designed switch direction (-1 OFF switch, 1 ON switch): 1; higher = weaker reporter binding; conditions: FMN input: 0 or 200 uM; Eterna round: R93 (includes R88 designs)
Outline: as §1

Sequence | apparent KD of MS2 coat protein [1] | apparent KD of MS2 coat protein [2]
AAAUAAAUGACUCAGGAUAUAUCAGAGAAAACAUGAGGAUCACCCAUGUAAUAAUAACAUGUGUGGUAGAAGGGAGUCAAUAAAU [LROPPY Same State 2 - v03_deltaG=2.1] | 13.5 nM | 49.3 nM
AAAUAAAUGACUCAGGAUAUAUCAUAGAAAACAUGAGGAUCACCCAUGUAAUAAUAACAUGUUUGGUAGAAGGGAGUCAAUAAAU [LROPPY Same State 2 - v04_deltaG=1.25] | 31.1 nM | 18.6 nM
AAAUAAAUGACUCAGGAUAUAUCAUAGGGUACAUGAGGAUCACCCAUGUUUUAAUAACAUGUUUGGUAGAAGGGAGUCAAUAAAU [LROPPY Same State 2 - v07_deltaG=1.69] | 85.1 nM | 133 nM
AAAUAAAUGACUGAGGAUAUAUCGAUGAGUACAUGAGGAUCACCCAUGUGUUAAUAAAAAGGGUGGUAGAAGGUAGUCAACAAAC [Mod 15 of Pariah 4 by Hyphema in Round 1] | 112 nM | 51.2 nM
AACAAUCUAUCUGAGGAUAUCAUGACAAAGACAUGAGGAUCACCCAUGUACCAGGAAACUGGUUAUGAGAAGGCAGAUAGAUUGA [SS2: 1117] | 11.5 nM | 18.8 nM
AACAGACAUGAGGAUCACCCAUGUAGAAUUAUGGGAGGAUAUACAAAGACGAGAGUCAGAGUAGAAGGCCUAGGAA [salish99-ss1-165] | 22 nM | 89.7 nM
AACAUACAUGAGGAUCACCCAUGUUCCGGCAGGACAGGAUAUACAUCGAAAGUGUUAUAAGUAGAAGGGUCAUAAA [JR_SS001_Sub012] | 56.7 nM | 66.5 nM
AACCAACAUGAGGAUCACCCAUGUCAACCCAAGCGAGGAUAUCCGAGAAUAACAAUGGGAGGAGAAGGCGCGACCU [ss1] | 38.1 nM | 39 nM
AACUAACAUGAGGAUCACCCAUGUAAUCAAACAUGAGGAUAUAUAACACAUCAUCAACAGAUAGAAGGCAUAAAUA [JR_SS001_Sub1203] | 80.4 nM | 62.7 nM
AAGAAACAUGAGGAUCACCCAUGUAAGAUUAUGGGAGGAUAUGCGAAAAGAAACAAAGAAGCAGAAGGCCUAAGAA [75%, Ex5 sub 1, 4] | 15.7 nM | 77.3 nM
AAGAAACAUGAGGAUCACCCAUGUAGAAACAUGGGAGGAUAUACAAAGACGAAAGUCAAAGUAGAAGGCCUAAAAA [Mat - Same State 1 - Mod - D165] | 88.6 nM | 141 nM
AAGUCACAUGAGGAUCACCCAUGUCGUAAACGAUGAGGAUAUAGGAAAAAAAAAAAAAAACUAGAAGGUAUAACAA [SameState1-01] | 35 nM | 38.5 nM
AAUAAACAUGAGGAUCACCCAUGUAGAAAUAUGGGAGGAUAUACAAAGACGAAAGUCAAAGUAGAAGGCCUAAUAA [Mat - Same State 1 - Mod - D153] | 18 nM | 58.5 nM
AAUAAUUAUAUGGAGGAUAUCCGUAAUAAGACAUGAGGAUCACCCAUGUAAUAAGGUUAAAUAAAGGAGAAGGCCAAGGGUGAAA [JR_SS002_Sub004] | 129 nM | 344 nM
AAUACACAUGAGGAUCACCCAUGUAGAAAGAAGUCAGGAUAUCCGAUCCACAUGUGAUAAGGAGAAGGGACAAUAA [SS 1 Tesla 8] | 19.6 nM | 95.4 nM
AAUAUACAUGAGGAUCACCCAUGUUUUAAUAACUCAGGAUAUACGGGUGAAAACAGCAUAGUAGAAGGGAGAAAAA [SameState1 Malc#2] | 44 nM | 113 nM
AAUAUACAUGAGGAUCACCCAUGUUUUAAUAGCUGAGGAUAUACGGGUGAAAACAGCAUAGUAGAAGGCGGGUGUA [SameState1 Malc#8] | 99.6 nM | 115 nM
AAUGAACAUGAGGAUCACCCAUGUUCUAAUAGUUGAGGAUAUAUGGGUGAAAAUAGCACAGUAGAAGGCGAGUGUA [SameState1 Malc#17] | 408 nM | 262 nM
AGAAAGAAAAGAGAGGAUAUCUAAAAGAAAACAUGAGGAUCACCCAUGUAAAAGAAAAGAAAAUGGGAGAAGGCUUAUGAGAAAG [JL Skelter Mod 8 In the Red] | 107 nM | 82 nM
AGAAAUAAAACACAGGAUAUCCAAAAUAAAACAUGAGGAUCACCCAUGUAAAGAAAAGAAAAAUGGGAGAAGGGUGAAAAUAAGA [Mat - Same State 2 - JL mod - D19] | 19.4 nM | 69.7 nM
AGAAAUAAAAGAGAGGAUAUGCAAAAGAUAACAUGAGGAUCACCCAUGUAAAAGAAAAUAAAUGGGUAGAAGGCUCAAAAUAAGA [Jieux modified] | 86.4 nM | 64.9 nM
AGAAAUAAAAGAGAGGAUAUUCAAAAAGGGACAUGAGGAUCACCCAUGUAAAAGAAAAUAAAAUGGGAGAAGGCUCUAAAUAAAG [80%, More Helter Skelter 2] | 86.6 nM | 127 nM
AGAAAUAAAGCGAAGGAUAUCCAAACCUAAACAUGAGGAUCACCCAUGUAAAAGAAAAUAAAAUGGGAGAAGGUCGCAAAUAAGA [Designing denovo 14] | 13.5 nM | 22.8 nM
AGAAGACAUGAGGAUCACCCAUGUGGGAUUAUGGGAGGAUAUACAAAGACGAGAGUCAGAGUAGAAGGCCUAGGAA [salish99-ss1-112(!!!!!)] | 29 nM | 70.5 nM
AGAAUAAAAAGACAGGAUAUCCAAAAAAAAACAUGAGGAUCACCCAUGUAAAAAAAAUAAAAAUGGGAGAAGGGUCAAAAUAAGA [Mat - Same State 2 - JL mod - D64] | 19.9 nM | 35.9 nM
AGACAUAAAAGAGAGGAUAUCCAAAAGAAAACAUGAGGAUCACCCAUGUGAAAGAAAAUAAAAUGGGAGAAGGCUCACAUACAGA [Topaz 36] | 14.1 nM | 27.4 nM
AGCAUCACCAGUCAGGAUAUGUAGGCCUUGACAUGAGGAUCACCCAUGUGGACGAAACACCGGCCACAGAAGGGAUUGUAAAUAA [Ries] | 434 nM | 67.4 nM
AGCGAACAUGAGGAUCACCCAUGUCCCGCGAAUCAAGGAUAUGGGCAGAUGAGUCCUGCGCCAGAAGGUGAGUAAA [Rigeesar] | 49.6 nM | 132 nM
AGCGAACAUGAGGAUCACCCAUGUGAAAAACAUAGAGGAUAUGUCGCAUGAGUGUAAAAGACAGAAGGCUAUCGCA [Mod of Nando] | 38.8 nM | 116 nM
